The text below walks through data of paper PMC10808224, “Lsr2 acts as a cyclic di-GMP receptor that promotes keto-mycolic acid synthesis and biofilm formation in mycobacteria” (Nature Communications, 2024).

The target in data set [1] is Lsr2Mtb (Lsr2BCG in main text) (Mycobacterium tuberculosis) (UniProt P9WIP7). Briefly: EMSA. Background: A gel shift assay detects complexes by their altered migration in electrophoresis.
The target of data set [2] is Lsr2Msm (Mycobacterium smegmatis mc2 155) (UniProt A0R576). As to the kind of experiment: EMSA. The conditions noted are these: EMSA: 50 mM Tris-HCl pH 7.5, 50 mM NaCl, 10% glycerol, 30 uL, room temperature 15 min; 8% native PAGE in 0.5x TBE.

As for “CCGCTCGGATCGGGGTTCCGTCGGCCCTGGCGCTGGGTGCGGCCGGCGGCGCGTTGGCGGCTCTAGCCTCTAGACGCCAATCACGCTGATAAGCTGCGCCGTTAGCCTGGCGACGATGCGGCCCGCGCAGCGGGGCGAGGAGGAGCCGGGCAATAGGGCCCAGCCTGGCGACGATGCGACCCGCGCAGCGGGGCGAGGAGGAGCCGGGCAATAGGGCTTAGCAACTATTCGAGCGGAGGGCGGCAGCGGCATGACAGTTCCCGAAGAAGCCCAGACACTGATCGGCAAGCATTATCGGGC (double strand) [hadDMtbp / hadDBCGp]”, in data set [1], the binding entry was “binds”.
Regarding “TAGTCGGGGTAGCGGTAGTGAGTCCCGATGATGTTTGCCGCGATGCTCATGTGTTCTCTGCTACTCCCGTGCTTCCAGCTTCAACTGCCCGGCTGCGGAAGCCTATCAGCGTGGGGGTTCAGCGAATGTCAGCGAAGGTCAGCGAAGGTCATGGCGGCGGGAGGCCACCGCGGCCAGCGCGCCGCCGAGCGCCCCTAGGGCCAGCGCGGACGGCACACCGATGCGGGCCGCTTTGCGGGCCGTGCGGAAGTCGCGGATCTCCCAGCCGCGTTCCCGCGCGACGTCGCGCAGCGCGGCGTC (double strand) [hadDMsmp]”, in data set [2], the binding result is recorded as “binds”.
